T1: human amylin 3(a) receptor (human calcitonin receptor co-expressed with RAMP-3) (human, UniProt P30988 25-474; O60896 24-148, limits assumed)
T1 sequence (looked up) 1: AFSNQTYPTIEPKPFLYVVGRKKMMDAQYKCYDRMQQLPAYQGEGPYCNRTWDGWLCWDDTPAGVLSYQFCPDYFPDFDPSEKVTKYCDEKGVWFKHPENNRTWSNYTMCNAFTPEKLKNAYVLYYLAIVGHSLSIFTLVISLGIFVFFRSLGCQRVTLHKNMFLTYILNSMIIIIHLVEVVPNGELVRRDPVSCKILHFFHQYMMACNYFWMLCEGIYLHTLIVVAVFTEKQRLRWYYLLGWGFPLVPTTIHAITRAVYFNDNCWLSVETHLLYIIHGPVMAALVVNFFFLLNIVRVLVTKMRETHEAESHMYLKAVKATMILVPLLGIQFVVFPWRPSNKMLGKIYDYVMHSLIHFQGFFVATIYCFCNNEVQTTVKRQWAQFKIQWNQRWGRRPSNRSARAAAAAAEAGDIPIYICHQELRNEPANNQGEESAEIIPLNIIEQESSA
T1 sequence (looked up) 2: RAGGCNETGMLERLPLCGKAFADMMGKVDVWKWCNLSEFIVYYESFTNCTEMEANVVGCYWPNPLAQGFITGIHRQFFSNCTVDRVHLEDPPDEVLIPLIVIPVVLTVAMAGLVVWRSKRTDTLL

B1: N^ε1-[2-[2-[2-[[(4S)-4-carboxy-4-(19-carboxynonadecanoylamino)butanoyl]amino]ethoxy]ethoxy]acetyl]-[Thr14,Arg17,Pro21,Pro27,Pro31]-h-amylin (peptide)
peptide: K([AEEA-γGlu-C20 diacid])CNTATCATQRLATFLRHSSPNFGAIPSSTPVGSNTY-NH2
modifications: disulfide 2-7; N-terminus assumed
SMILES: CC[C@H](C)[C@H](NC(=O)[C@H](C)NC(=O)CNC(=O)[C@H](Cc1ccccc1)NC(=O)[C@H](CC(N)=O)NC(=O)[C@@H]1CCCN1C(=O)[C@H](CO)NC(=O)[C@H](CO)NC(=O)[C@H](Cc1c[nH]cn1)NC(=O)[C@H](CCCNC(=N)N)NC(=O)[C@H](CC(C)C)NC(=O)[C@H](Cc1ccccc1)NC(=O)[C@@H](NC(=O)[C@H](C)NC(=O)[C@H](CC(C)C)NC(=O)[C@H](CCCNC(=N)N)NC(=O)[C@H](CCC(N)=O)NC(=O)[C@@H](NC(=O)[C@H](C)NC(=O)[C@@H]1CSSC[C@H](NC(=O)[C@@H](N)CCCCNC(=O)COCCOCCNC(=O)CC[C@H](NC(=O)CCCCCCCCCCCCCCCCCCC(=O)O)C(=O)O)C(=O)N[C@@H](CC(N)=O)C(=O)N[C@@H]([C@@H](C)O)C(=O)N[C@@H](C)C(=O)N[C@@H]([C@@H](C)O)C(=O)N1)[C@@H](C)O)[C@@H](C)O)C(=O)N1CCC[C@H]1C(=O)N[C@@H](CO)C(=O)N[C@@H](CO)C(=O)N[C@H](C(=O)N1CCC[C@H]1C(=O)N[C@H](C(=O)NCC(=O)N[C@@H](CO)C(=O)N[C@@H](CC(N)=O)C(=O)N[C@H](C(=O)N[C@@H](Cc1ccc(O)cc1)C(N)=O)[C@@H](C)O)C(C)C)[C@@H](C)O
notes: also called compound 75
B2: N^ε1-[(4S)-4-carboxy-4-(19-carboxynonadecanoylamino)butanoyl]-[Arg17,Pro21,Pro27,Arg34]-h-amylin (peptide)
peptide: K([γGlu-C20 diacid])CNTATCATQRLANFLRHSSPNFGAIPSSTNVGRNTY-NH2
modifications: disulfide 2-7; N-terminus assumed
SMILES: CC[C@H](C)[C@H](NC(=O)[C@H](C)NC(=O)CNC(=O)[C@H](Cc1ccccc1)NC(=O)[C@H](CC(N)=O)NC(=O)[C@@H]1CCCN1C(=O)[C@H](CO)NC(=O)[C@H](CO)NC(=O)[C@H](Cc1c[nH]cn1)NC(=O)[C@H](CCCNC(=N)N)NC(=O)[C@H](CC(C)C)NC(=O)[C@H](Cc1ccccc1)NC(=O)[C@H](CC(N)=O)NC(=O)[C@H](C)NC(=O)[C@H](CC(C)C)NC(=O)[C@H](CCCNC(=N)N)NC(=O)[C@H](CCC(N)=O)NC(=O)[C@@H](NC(=O)[C@H](C)NC(=O)[C@@H]1CSSC[C@H](NC(=O)[C@@H](N)CCCCNC(=O)CC[C@H](NC(=O)CCCCCCCCCCCCCCCCCCC(=O)O)C(=O)O)C(=O)N[C@@H](CC(N)=O)C(=O)N[C@@H]([C@@H](C)O)C(=O)N[C@@H](C)C(=O)N[C@@H]([C@@H](C)O)C(=O)N1)[C@@H](C)O)C(=O)N1CCC[C@H]1C(=O)N[C@@H](CO)C(=O)N[C@@H](CO)C(=O)N[C@H](C(=O)N[C@@H](CC(N)=O)C(=O)N[C@H](C(=O)NCC(=O)N[C@@H](CCCNC(=N)N)C(=O)N[C@@H](CC(N)=O)C(=O)N[C@H](C(=O)N[C@@H](Cc1ccc(O)cc1)C(N)=O)[C@@H](C)O)C(C)C)[C@@H](C)O
notes: also called compound 79
B3: N^ε1-[(4S)-4-carboxy-4-(19-carboxynonadecanoylamino)butanoyl]-[Arg14,Arg17,Pro21,Pro27,Pro31]-h-amylin (peptide)
peptide: K([γGlu-C20 diacid])CNTATCATQRLARFLRHSSPNFGAIPSSTPVGSNTY-NH2
modifications: disulfide 2-7; N-terminus assumed
SMILES: CC[C@H](C)[C@H](NC(=O)[C@H](C)NC(=O)CNC(=O)[C@H](Cc1ccccc1)NC(=O)[C@H](CC(N)=O)NC(=O)[C@@H]1CCCN1C(=O)[C@H](CO)NC(=O)[C@H](CO)NC(=O)[C@H](Cc1c[nH]cn1)NC(=O)[C@H](CCCNC(=N)N)NC(=O)[C@H](CC(C)C)NC(=O)[C@H](Cc1ccccc1)NC(=O)[C@H](CCCNC(=N)N)NC(=O)[C@H](C)NC(=O)[C@H](CC(C)C)NC(=O)[C@H](CCCNC(=N)N)NC(=O)[C@H](CCC(N)=O)NC(=O)[C@@H](NC(=O)[C@H](C)NC(=O)[C@@H]1CSSC[C@H](NC(=O)[C@@H](N)CCCCNC(=O)CC[C@H](NC(=O)CCCCCCCCCCCCCCCCCCC(=O)O)C(=O)O)C(=O)N[C@@H](CC(N)=O)C(=O)N[C@@H]([C@@H](C)O)C(=O)N[C@@H](C)C(=O)N[C@@H]([C@@H](C)O)C(=O)N1)[C@@H](C)O)C(=O)N1CCC[C@H]1C(=O)N[C@@H](CO)C(=O)N[C@@H](CO)C(=O)N[C@H](C(=O)N1CCC[C@H]1C(=O)N[C@H](C(=O)NCC(=O)N[C@@H](CO)C(=O)N[C@@H](CC(N)=O)C(=O)N[C@H](C(=O)N[C@@H](Cc1ccc(O)cc1)C(N)=O)[C@@H](C)O)C(C)C)[C@@H](C)O
notes: also called compound 63
B4: N^ε1-[(4S)-4-carboxy-4-(19-carboxynonadecanoylamino)butanoyl]-[Arg14,Arg17,Pro21,Pro27]-h-amylin (peptide)
peptide: K([γGlu-C20 diacid])CNTATCATQRLARFLRHSSPNFGAIPSSTNVGSNTY-NH2
modifications: disulfide 2-7; N-terminus assumed
SMILES: CC[C@H](C)[C@H](NC(=O)[C@H](C)NC(=O)CNC(=O)[C@H](Cc1ccccc1)NC(=O)[C@H](CC(N)=O)NC(=O)[C@@H]1CCCN1C(=O)[C@H](CO)NC(=O)[C@H](CO)NC(=O)[C@H](Cc1c[nH]cn1)NC(=O)[C@H](CCCNC(=N)N)NC(=O)[C@H](CC(C)C)NC(=O)[C@H](Cc1ccccc1)NC(=O)[C@H](CCCNC(=N)N)NC(=O)[C@H](C)NC(=O)[C@H](CC(C)C)NC(=O)[C@H](CCCNC(=N)N)NC(=O)[C@H](CCC(N)=O)NC(=O)[C@@H](NC(=O)[C@H](C)NC(=O)[C@@H]1CSSC[C@H](NC(=O)[C@@H](N)CCCCNC(=O)CC[C@H](NC(=O)CCCCCCCCCCCCCCCCCCC(=O)O)C(=O)O)C(=O)N[C@@H](CC(N)=O)C(=O)N[C@@H]([C@@H](C)O)C(=O)N[C@@H](C)C(=O)N[C@@H]([C@@H](C)O)C(=O)N1)[C@@H](C)O)C(=O)N1CCC[C@H]1C(=O)N[C@@H](CO)C(=O)N[C@@H](CO)C(=O)N[C@H](C(=O)N[C@@H](CC(N)=O)C(=O)N[C@H](C(=O)NCC(=O)N[C@@H](CO)C(=O)N[C@@H](CC(N)=O)C(=O)N[C@H](C(=O)N[C@@H](Cc1ccc(O)cc1)C(N)=O)[C@@H](C)O)C(C)C)[C@@H](C)O
notes: also called compound 83
B5: N^ε1-[(4S)-4-carboxy-4-(19-carboxynonadecanoylamino)butanoyl]-[Arg14,Arg17,Pro21,Pro27,Pro34]-h-amylin (peptide)
peptide: K([γGlu-C20 diacid])CNTATCATQRLARFLRHSSPNFGAIPSSTNVGPNTY-NH2
modifications: disulfide 2-7; N-terminus assumed
SMILES: CC[C@H](C)[C@H](NC(=O)[C@H](C)NC(=O)CNC(=O)[C@H](Cc1ccccc1)NC(=O)[C@H](CC(N)=O)NC(=O)[C@@H]1CCCN1C(=O)[C@H](CO)NC(=O)[C@H](CO)NC(=O)[C@H](Cc1c[nH]cn1)NC(=O)[C@H](CCCNC(=N)N)NC(=O)[C@H](CC(C)C)NC(=O)[C@H](Cc1ccccc1)NC(=O)[C@H](CCCNC(=N)N)NC(=O)[C@H](C)NC(=O)[C@H](CC(C)C)NC(=O)[C@H](CCCNC(=N)N)NC(=O)[C@H](CCC(N)=O)NC(=O)[C@@H](NC(=O)[C@H](C)NC(=O)[C@@H]1CSSC[C@H](NC(=O)[C@@H](N)CCCCNC(=O)CC[C@H](NC(=O)CCCCCCCCCCCCCCCCCCC(=O)O)C(=O)O)C(=O)N[C@@H](CC(N)=O)C(=O)N[C@@H]([C@@H](C)O)C(=O)N[C@@H](C)C(=O)N[C@@H]([C@@H](C)O)C(=O)N1)[C@@H](C)O)C(=O)N1CCC[C@H]1C(=O)N[C@@H](CO)C(=O)N[C@@H](CO)C(=O)N[C@H](C(=O)N[C@@H](CC(N)=O)C(=O)N[C@H](C(=O)NCC(=O)N1CCC[C@H]1C(=O)N[C@@H](CC(N)=O)C(=O)N[C@H](C(=O)N[C@@H](Cc1ccc(O)cc1)C(N)=O)[C@@H](C)O)C(C)C)[C@@H](C)O
notes: also called compound 65

The results in this text go back to patent US20140087995A1 (published 2014).

Numbered stars: 1 amine (or outer) side, 2 acyl side, 3 side chain; on linkers, the order of the positions; unused ones are H or OH. Bridge positions count the residues as written; N and C are the ends. Side chains are listed from the residue outwards. Ends that are not written are not given here. * marks the point of attachment. C20 diacid = O=C(O)CCCCCCCCCCCCCCCCCCC(=O)*; γGlu = O=C(O)[C@H](CCC(=O)[*:2])N[*:1]; AEEA = NCCOCCOCC(=O)O

The experiment addresses T1, human amylin 3(a) receptor (human …). The experiment can be described thus: cell-based or functional assay.
Turning to B1, the “Ratio hCT/hAmylin funct. (hCTR EC50 over hAmylin-R EC50)” value amounted to 30.6 and the “hAmylin-R funct. EC50 (pM)” value was 296 pM.

Regarding B2, the “Ratio hCT/hAmylin funct. (hCTR EC50 over hAmylin-R EC50)” value was found to be 24.5 and the “hAmylin-R funct. EC50 (pM)” value was 161 pM.

For the molecule B3, the “Ratio hCT/hAmylin funct. (hCTR EC50 over hAmylin-R EC50)” value worked out at 139 and the “hAmylin-R funct. EC50 (pM)” value was 37 pM.

Consider B4, for which the “Ratio hCT/hAmylin funct. (hCTR EC50 over hAmylin-R EC50)” value came out at 41.6 and the “hAmylin-R funct. EC50 (pM)” value is 405 pM.

In the case of B5, the “Ratio hCT/hAmylin funct. (hCTR EC50 over hAmylin-R EC50)” value was 38.6 and the “hAmylin-R funct. EC50 (pM)” value stood at 242 pM.
